Paper PMC8079274

Target: KSR1 in KSR1+/+ mouse embryo fibroblasts (cells that overexpress KSR1) (UniProt Q61097)
Assay: proximity ligation; fixed serum-starved KSR1+/+ MEFs, anti-KSR1 with anti-pERK or anti-ERK antibodies, Duolink; vehicle or 40 μM CGS9343B for 16 h, then vehicle or 100 ng/ml EGF for 5 min; spots per cell, vehicle set to 1

Sequence of KSR1 in KSR1+/+ mouse embryo fibroblasts (cells that overexpress KSR1) (Q61097 whole entry): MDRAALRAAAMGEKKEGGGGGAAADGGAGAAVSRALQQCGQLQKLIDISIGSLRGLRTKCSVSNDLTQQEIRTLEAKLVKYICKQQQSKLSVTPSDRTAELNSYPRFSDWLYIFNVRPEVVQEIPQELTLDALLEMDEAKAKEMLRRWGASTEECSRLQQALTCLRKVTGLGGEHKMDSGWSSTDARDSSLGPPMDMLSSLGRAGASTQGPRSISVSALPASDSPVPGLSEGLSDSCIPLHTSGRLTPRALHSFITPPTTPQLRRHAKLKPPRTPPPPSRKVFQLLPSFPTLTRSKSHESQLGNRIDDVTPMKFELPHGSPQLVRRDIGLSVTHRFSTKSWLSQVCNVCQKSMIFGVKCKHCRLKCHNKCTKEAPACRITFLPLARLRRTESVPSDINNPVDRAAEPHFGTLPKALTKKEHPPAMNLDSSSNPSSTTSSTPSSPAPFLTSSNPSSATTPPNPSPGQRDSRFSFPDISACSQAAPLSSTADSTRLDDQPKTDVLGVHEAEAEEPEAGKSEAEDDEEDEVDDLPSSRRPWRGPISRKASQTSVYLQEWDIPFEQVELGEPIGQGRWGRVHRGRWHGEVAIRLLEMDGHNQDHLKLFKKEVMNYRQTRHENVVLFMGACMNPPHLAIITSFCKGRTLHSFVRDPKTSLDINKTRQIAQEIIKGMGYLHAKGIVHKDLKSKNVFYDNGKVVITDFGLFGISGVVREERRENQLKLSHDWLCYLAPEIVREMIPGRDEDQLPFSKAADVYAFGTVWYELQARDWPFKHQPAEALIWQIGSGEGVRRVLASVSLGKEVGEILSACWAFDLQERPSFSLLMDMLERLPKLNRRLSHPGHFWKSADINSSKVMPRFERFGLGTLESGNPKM

fold change of PLA spots per cell, EGF against vehicle | Substance
6.2 fold | pERK (phosphorylated ERK) (from UniProt P63085 1-358) (natural protein)
4.36 fold | ERK (extracellular signal-regulated kinase), total ERK (from UniProt P63085 1-358) (natural protein)
